Test results from publication PMC6214142, “Transcription of the Human 5-Hydroxytryptamine Receptor 2B (HTR2B) Gene Is under the Regulatory Influence of the Transcription Factors NFI and RUNX1 in Human Uveal Melanoma”.

What was measured:
NFIX = NFIX (Homo sapiens, UniProt Q14938 1-502); assay: EMSA; EMSA: 10 mM Hepes pH 7.9, 10% glycerol, 0.1 mM EDTA, 0.5 mM DTT, 0.25 mM PMSF, 50 mM KCl, 2 ug poly(dI:dC); Tris-glycine gels at 4 C; footprinting binding 5 min
NFIA = NFIA (Homo sapiens, UniProt Q12857 1-509); assay: EMSA; EMSA: 10 mM Hepes pH 7.9, 10% glycerol, 0.1 mM EDTA, 0.5 mM DTT, 0.25 mM PMSF, 50 mM KCl, 2 ug poly(dI:dC); Tris-glycine gels at 4 C; footprinting binding 5 min at room temperature with 5 ug poly(dI:dC); details: protein: recombinant; chain copies: 2; label: 5' 32P as probe; blunt
Sequence of NFIA (Q12857 whole entry): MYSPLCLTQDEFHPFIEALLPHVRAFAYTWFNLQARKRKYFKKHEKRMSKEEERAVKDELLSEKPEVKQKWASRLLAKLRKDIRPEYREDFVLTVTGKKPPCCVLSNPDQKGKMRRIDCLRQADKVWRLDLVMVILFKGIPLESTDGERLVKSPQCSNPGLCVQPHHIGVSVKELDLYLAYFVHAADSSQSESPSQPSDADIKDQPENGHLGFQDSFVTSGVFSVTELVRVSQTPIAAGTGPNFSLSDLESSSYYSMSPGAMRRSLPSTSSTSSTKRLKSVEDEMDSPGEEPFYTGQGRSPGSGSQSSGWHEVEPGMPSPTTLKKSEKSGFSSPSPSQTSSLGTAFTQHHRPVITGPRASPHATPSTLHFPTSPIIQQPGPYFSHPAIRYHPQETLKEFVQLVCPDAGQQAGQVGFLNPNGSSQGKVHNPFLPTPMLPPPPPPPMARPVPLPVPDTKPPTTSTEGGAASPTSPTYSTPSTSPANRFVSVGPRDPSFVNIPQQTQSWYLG

NFIC = NFIC (Homo sapiens, UniProt P08651 1-508); assay: as above; details: protein: recombinant; chain copies: 2; label: 5' 32P as probe; blunt
Sequence of NFIC (P08651 whole entry): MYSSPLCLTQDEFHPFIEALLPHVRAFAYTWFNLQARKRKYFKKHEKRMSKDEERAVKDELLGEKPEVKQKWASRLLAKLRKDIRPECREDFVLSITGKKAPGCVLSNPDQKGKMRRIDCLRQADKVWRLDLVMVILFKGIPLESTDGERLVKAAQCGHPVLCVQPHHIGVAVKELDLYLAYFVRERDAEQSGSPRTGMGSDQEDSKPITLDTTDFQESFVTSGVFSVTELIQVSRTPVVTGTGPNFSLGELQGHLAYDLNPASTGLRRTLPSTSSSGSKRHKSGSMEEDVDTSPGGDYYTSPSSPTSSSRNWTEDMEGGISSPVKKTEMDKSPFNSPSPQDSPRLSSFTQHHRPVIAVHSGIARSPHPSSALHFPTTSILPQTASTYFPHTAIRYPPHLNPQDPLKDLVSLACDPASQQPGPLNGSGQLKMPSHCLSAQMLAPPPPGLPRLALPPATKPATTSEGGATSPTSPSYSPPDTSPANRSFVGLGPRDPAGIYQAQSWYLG

NFIB = NFIB (Homo sapiens, UniProt O00712 1-420); assay: as above; details: protein: recombinant; chain copies: 2; label: 5' 32P as probe; blunt

Measured: binding result

B1: NFI high affinity probe (dsDNA)
DNA 1: TTATTTTGGATTGAAGCCAATATGAG
DNA 2: CTCATATTGGCTTCAATCCAAAATAA
binds: NFIX | NFIA | NFIC | NFIB
